Where a SMILES comes first, the peptide text is derived from it. Side-chain parts run from the residue outwards. The star is where a group is joined. DTPA = O=C(O)CN(CCN(CC(=O)O)CC(=O)O)CCN(CC(=O)O)CC(=O)*; X1 = NC(=S)NN=CC(=O)*
Legend:
CaPan1 tumor = assay: Pre-targeting with bsMAb and radiolabeled peptide-haptens in CaPan1 tumor-bearing mice; settings: peptide pre-targeted with bsPAM4, 3-Hours
Protocol: Mice were sacrificed at 3 and 24 hours after the administration of peptides and the % ID/g determined for the tumor and various tissues.

[1] = test system: Normal Adult Tissue Homogenates; assay: PAM4 based enzyme immunoassay with tissue homogenates as antigens; type: binding, human
Text: (§1) Normal pancreatic tissue, including ducts, ductules, acini, and islet cells, were negative for staining. A PAM4 based enzyme immunoassay with tissue homogenates as antigens generally supported the immunohistology data (Table 2). The PAM4 epitope was absent from normal pancreas and other nongastrointestinal tissues. In neoplastic tissues, PAM4 was reactive with twenty one out of twenty five ([…]) pancreatic cancers (Table 3). PAM4 reactivity appeared to correlate with the stage of tumor differentiation. […] Generally, poorly differentiated tumors represent less than 10% of all pancreatic cancers.

tumors = assay: Clinical studies with PAM4 MAb: targeting and dosimetry; type: in vivo, human; settings: patients
Normal Adult Tissues = assay: Immunoperoxidase staining of normal adult tissues with MAb PAM4; type: binding, human
Text: as §1

Pancreatic Tumors = assay: Immunohistochemical reactivity of monoclonal antibodies with pancreatic tumors; type: binding, human; set-up: key to Immunohistochemical reactivity: −: Negative; +: 5–20% of tissue is stained; ++: 21–50% of tissue is stained; +++: >50% of tissue is stained
Text: as §1
(§2) These studies have shown the PAM4 reactivity and tissue distribution (both normal and cancer) to be unlike that reported for CA19.9, DUPAN2, SPAN1, Nd2, B72.3, and the Lewis antigens. […] When compared to CA19.9, DUPAN2, and aLe^a, PAM4 appears to be more restricted in its tissue distribution and it is reactive with a higher percentage of pancreatic tumors. Moreover, it gives a greater overall intensity of reaction at equivalent concentrations and is reactive with a higher percentage of cells within the tumors. […] Although it is recognized that specificity is dependent upon the type of assay employed and the range and number of tissues examined, the ability of PAM4 to discriminate between normal and neoplastic pancreatic tissue, its ability to react with a large percentage of the cancer specimens, as well as the high intensity of the reactions, were important rationales for pursuing developmental studies of clinical application.

Neoplastic Tissues = assay: Immunoperoxidase staining of neoplastic tissues with MAb PAM4; type: binding, human
Text: as §1

CaPan1 = assay: Biodistribution and dosimetry of radiolabeled PAM4, CaPan1 xenograft; settings: in vivo
Protocol: Initial biodistribution studies of PAM4 were carried out in a series of four different xenografted human pancreatic tumors covering the range of expected differentiation. […] The biodistribution data were used to estimate potential radiation doses to the tumor of 12,230; 10,684; 6,835; and 15,843 cGy/mCi of injected dose to AsPc1, BxPc3, Hs766T and CaPan1, respectively. With an actual maximum tolerated dose (MTD) of 0.7 mCi, PAM4 could provide substantial rad dose to each of the xenografted tumor models. […] Potential radiation doses to the blood from PAM4 were 1.4-4.4 fold lower than from Ag8. […] Importantly, potential radiation doses to non-tumor tissues were minimal.
The biodistribution of PAM4 was compared with an anti-CEA antibody, MN14, using the CaPan1 tumor model. The concentration of PAM4 within the tumor was much greater than the MN14 at early timepoints, yielding tumor:blood ratios at day three of 12.7±2.3 for PAM4 compared to 2.7±1.9 for MN14. […] This was due to a rapid clearance of PAM4 from the tumor, such that at later timepoints similar concentrations of the two antibodies were present within the tumors. A rapid clearance of PAM4 from the tumor was also noted in the BxPc3 and Hs766T but not AsPc1 tumor models. […] Results from studies on the metabolism of PAM4, indicate that after initial binding to the tumor cell, antibody is rapidly released, possibly being catabolized or being shed as an antigen:antibody complex. This might have had unfavorable implications for the use of the antibody in patients except that the blood clearance is also very rapid.
This type of splenic targeting has been observed in the clinical application of the anti-mucin antibodies B72.3 and CC49. […] The latter would require the presence of immune complexes in the blood; however, these were not observed when specimens as early as five minutes and as late as seven days were examined by gel filtration (HPLC, GF-250 column); radiolabeled antibody eluted as native material. The former explanation seems more likely in view of the fact that the CaPan1 tumor produced large quantities of PAM4-reactive antigen, 100 to 1000-fold higher than for the other tumor cell lines examined. […] In any event, splenic targeting can be overcome by increasing the protein dose to 10 ug from the original 2 ug dose. A greater amount of the splenic entrapped antigen presumably was complexed with unlabeled PAM4 rather than radiolabeled antibody. Increasing the protein dose had no adverse effect upon targeting of PAM4 to the tumor or nontumor tissues.

[2] = test system: chronic pancreatitis specimens; assay: Immunohistochemistry of chronic pancreatitis specimens; type: binding, human; settings: twelve specimens
Text: as §2

CC(=O)N[C@@H](CCCCNC(=O)CN(CCN(CCN(CC(=O)O)CC(=O)O)CC(=O)O)CC(=O)O)C(=O)N[C@@H](Cc1ccc(O)cc1)C(=O)N[C@@H](CCCCNC(=O)CN(CCN(CCN(CC(=O)O)CC(=O)O)CC(=O)O)CC(=O)O)C(=O)N[C@@H](CCCCNC(=O)[C@H](CS)NC(=O)C=NNC(N)=S)C(N)=O [^99mTc-IMP192, metal not drawn] (Ac-K(DTPA)YK(DTPA)K([Cys-X1])-NH2; N-terminus and C-terminus assumed)
Tumor: Non-Tumor Tissue Ratio, Mean (CaPan1 tumor; Blood): 9.93 | Tumor: Non-Tumor Tissue Ratio, Mean (CaPan1 tumor; Kidney): 8.13 | Tumor: Non-Tumor Tissue Ratio, Mean (CaPan1 tumor; Liver): 16.66 | Tumor: Non-Tumor Tissue Ratio, Mean (CaPan1 tumor; Lung): 15.75 | Tumor: Non-Tumor Tissue Ratio, Mean (CaPan1 tumor; Pancreas): 73.29 | Tumor: Non-Tumor Tissue Ratio, Mean (CaPan1 tumor; Spleen): 14.62 | Tumor: Non-Tumor Tissue Ratio, Mean (CaPan1 tumor; Tumor): 1.00

CC(=O)N[C@@H](Cc1ccccc1)C(=O)N[C@@H](CCCCNC(=O)CN(CCN(CCN(CC(=O)O)CC(=O)O)CC(=O)O)CC(=O)O)C(=O)N[C@@H](Cc1ccc(O)cc1)C(=O)N[C@@H](CCCCNC(=O)CN(CCN(CCN(CC(=O)O)CC(=O)O)CC(=O)O)CC(=O)O)C(N)=O [^111In-IMP156, metal not drawn] (Ac-FK(DTPA)YK(DTPA)-NH2; N-terminus and C-terminus assumed)
Tumor: Non-Tumor Tissue Ratio, Mean (CaPan1 tumor; Blood): 36.47 | Tumor: Non-Tumor Tissue Ratio, Mean (CaPan1 tumor; Bone): 123.24 | Tumor: Non-Tumor Tissue Ratio, Mean (CaPan1 tumor; Kidney): 7.79 | Tumor: Non-Tumor Tissue Ratio, Mean (CaPan1 tumor; Liver): 36.07 | Tumor: Non-Tumor Tissue Ratio, Mean (CaPan1 tumor; Lung): 44.55 | Tumor: Non-Tumor Tissue Ratio, Mean (CaPan1 tumor; Pancreas): 155.55 | Tumor: Non-Tumor Tissue Ratio, Mean (CaPan1 tumor; Spleen): 33.40 | Tumor: Non-Tumor Tissue Ratio, Mean (CaPan1 tumor; Tumor): 1.00 | Tumor: Non-Tumor Tissue Ratio, Mean (CaPan1 tumor; W. Bone): 378.00

B1: PAM4: murine MUC1 monoclonal antibody developed with pancreatic cancer mucin from the xenografted RIP-1 human pancreatic carcinoma as immunogen (antibody, V domains shown)
VL: DIVMTQSPAIMSASPGEKVTMTCSASSSVSSSYLYWYQQKPGSSPKLWIYSTSNLASGVPARFSGSGSGTSYSLTISSMEAEDAASYFCHQWNRYPYTFGGGTKLEIK
VH: EVQLQESGPELVKPGASVKMSCKASGYTFPSYVLHWVKQKPGQGLEWIGYINPYNDGTQYNEKFKGKATLTSDKSSSTAYMELSRLTSEDSAVYYCARGFGGSYGFAYWGQGTLITVSA
PAM4 reactivity by EIA ([1]; Adrenal, mean from two autopsy specimens): 1.3 ug/g tissues | PAM4 reactivity by EIA ([1]; Bladder, mean from two autopsy specimens): 4.9 ug/g tissues | PAM4 reactivity by EIA ([1]; CaPan1 Pancreatic Tumor): 569 ug/g tissues | PAM4 reactivity by EIA ([1]; Colon, mean from two autopsy specimens): 74.5 ug/g tissues | PAM4 reactivity by EIA ([1]; Duodenum, mean from two autopsy specimens): 44.7 ug/g tissues | PAM4 reactivity by EIA ([1]; Esophagus, mean from two autopsy specimens): 8.1 ug/g tissues | PAM4 reactivity by EIA ([1]; Gallbladder, mean from two autopsy specimens): 5.6 ug/g tissues | PAM4 reactivity by EIA ([1]; Heart, mean from two autopsy specimens): 3.7 ug/g tissues | PAM4 reactivity by EIA ([1]; Jejunum, mean from two autopsy specimens): 60.6 ug/g tissues | PAM4 reactivity by EIA ([1]; Kidney, mean from two autopsy specimens): 6.6 ug/g tissues | PAM4 reactivity by EIA ([1]; Liver, mean from two autopsy specimens): 0.0 ug/g tissues | PAM4 reactivity by EIA ([1]; Pancreas, mean from two autopsy specimens): 6.4 ug/g tissues | PAM4 reactivity by EIA ([1]; Spleen, mean from two autopsy specimens): 3.4 ug/g tissues | PAM4 reactivity by EIA ([1]; Stomach, mean from two autopsy specimens): 61.3 ug/g tissues | PAM4 reactivity by EIA ([1]; Testes, mean from two autopsy specimens): 3.9 ug/g tissues | PAM4 reactivity by EIA ([1]; Thyroid, mean from two autopsy specimens): 3.5 ug/g tissues | PAM4 reactivity by EIA ([1]; Ureter, mean from two autopsy specimens): 2.6 ug/g tissues | targeting of lesions (tumors): a majority of the lesions were targeted | uptake in normal tissues (tumors): no indication of uptake in normal tissues | Staining Reaction (Normal Adult Tissues; Colon): + goblet cells | Staining Reaction (Normal Adult Tissues; Duodenum): + goblet cells | Staining Reaction (Normal Adult Tissues; Ileum): + goblet cells | Staining Reaction (Normal Adult Tissues; Jejunum): + goblet cells | Staining Reaction (Normal Adult Tissues; Stomach): + mucus secreting cells | Immunohistochemical reactivity, TOTAL (positive/examined) (Pancreatic Tumors; all pancreatic tumors): 21/25 | Immunohistochemical reactivity (Pancreatic Tumors; pancreatic tumor 1, differentiation W): +++ (+++: >50% of tissue is stained) | Immunohistochemical reactivity (Pancreatic Tumors; pancreatic tumor 2, differentiation M): ++ (++: 21–50% of tissue is stained) | Immunohistochemical reactivity (Pancreatic Tumors; pancreatic tumor 3, differentiation M): + (+: 5–20% of tissue is stained) | Immunohistochemical reactivity (Pancreatic Tumors; pancreatic tumor 4, differentiation M): +++ (+++: >50% of tissue is stained) | Immunohistochemical reactivity (Pancreatic Tumors; pancreatic tumor 5, differentiation M): ++ (++: 21–50% of tissue is stained) | Immunohistochemical reactivity (Pancreatic Tumors; pancreatic tumor 6, differentiation M): + (+: 5–20% of tissue is stained) | Immunohistochemical reactivity (Pancreatic Tumors; pancreatic tumor 7, differentiation M, metastatic tissue): +++ (+++: >50% of tissue is stained) | Immunohistochemical reactivity (Pancreatic Tumors; pancreatic tumor 8, differentiation M): + (+: 5–20% of tissue is stained) | Immunohistochemical reactivity (Pancreatic Tumors; pancreatic tumor 9, differentiation M): ++ (++: 21–50% of tissue is stained) | Immunohistochemical reactivity (Pancreatic Tumors; pancreatic tumor 10, differentiation M, metastatic tissue): ++ (++: 21–50% of tissue is stained) | Immunohistochemical reactivity (Pancreatic Tumors; pancreatic tumor 11, differentiation M): ++ (++: 21–50% of tissue is stained) | Immunohistochemical reactivity (Pancreatic Tumors; pancreatic tumor 12, differentiation M): ++ (++: 21–50% of tissue is stained) | Immunohistochemical reactivity (Pancreatic Tumors; pancreatic tumor 13, differentiation M): + (+: 5–20% of tissue is stained) | Immunohistochemical reactivity (Pancreatic Tumors; pancreatic tumor 14, differentiation M): ++ (++: 21–50% of tissue is stained) | Immunohistochemical reactivity (Pancreatic Tumors; pancreatic tumor 15, differentiation M): +++ (+++: >50% of tissue is stained) | Immunohistochemical reactivity (Pancreatic Tumors; pancreatic tumor 16, differentiation M): + (+: 5–20% of tissue is stained) | Immunohistochemical reactivity (Pancreatic Tumors; pancreatic tumor 17, differentiation M): − | Immunohistochemical reactivity (Pancreatic Tumors; pancreatic tumor 18, differentiation M): ++ (++: 21–50% of tissue is stained) | Immunohistochemical reactivity (Pancreatic Tumors; pancreatic tumor 19, differentiation M): +++ (+++: >50% of tissue is stained) | Immunohistochemical reactivity (Pancreatic Tumors; pancreatic tumor 20, differentiation M): + (+: 5–20% of tissue is stained) | Immunohistochemical reactivity (Pancreatic Tumors; pancreatic tumor 21, differentiation M): +++ (+++: >50% of tissue is stained) | Immunohistochemical reactivity (Pancreatic Tumors; pancreatic tumor 22, differentiation P): + (+: 5–20% of tissue is stained) | Immunohistochemical reactivity (Pancreatic Tumors; pancreatic tumor 23, differentiation P): − | Immunohistochemical reactivity (Pancreatic Tumors; pancreatic tumor 24, differentiation P): − | Immunohistochemical reactivity (Pancreatic Tumors; pancreatic tumor 25, differentiation P): − | tumors positive (Pancreatic Tumors; poorly differentiated pancreatic tumors): one out of four | pancreatic cancers reactive (Pancreatic Tumors; twenty one out of twenty five pancreatic cancers): 85% | tumors positive (Pancreatic Tumors; well and moderately differentiated pancreatic tumors): twenty out of twenty one | Positive/Total (Neoplastic Tissues; Breast neoplastic tissue): 0/30 | Positive/Total (Neoplastic Tissues; Colon neoplastic tissue): 10/26 | Positive/Total (Neoplastic Tissues; Kidney neoplastic tissue): 0/4 | Positive/Total (Neoplastic Tissues; Liver neoplastic tissue): 0/10 | Positive/Total (Neoplastic Tissues; Lung neoplastic tissue): 1/15 | Positive/Total (Neoplastic Tissues; Ovarian neoplastic tissue): 0/10 | Positive/Total (Neoplastic Tissues; Pancreas neoplastic tissue): 21/25 | Positive/Total (Neoplastic Tissues; Prostate neoplastic tissue): 0/4 | Positive/Total (Neoplastic Tissues; Stomach neoplastic tissue): 1/5 | specimens reactive with PAM4 by immunohistochemistry (Neoplastic Tissues; colorectal cancer specimens): 40% | concentration of radiolabeled PAM4 within the CaPan1 tumor on increasing protein dose (CaPan1): more than doubled | dose to the tumor, fold higher than MN14 (CaPan1): 3.2 fold | splenic uptake (CaPan1): 3.1-7.5 % ID/g | tumor:blood ratio (CaPan1): 12.7±2.3 | reactivity with chronic pancreatitis specimens [2]: only weakly reactive with three out of twelve

— patent publication US7238786B2, “Monoclonal antibody cPAM4” (Immunomedics, Inc., priority 2002, dated 2007)
